Source: US20060058236A1, “Endogenously-formed conjugate of albumin” (priority 2004, published 2006)

Columns and labels:
human serum albumin = human serum albumin (Homo sapiens, UniProt P02768); assay: Incubation of Epo conjugates with human serum albumin, SDS-PAGE and anti-HSA immunoblot; type: in vitro ADME; settings: 0.05% HSA, 21 hours at 37° C., no small molecule thiols
Protocol: mPEG-DTB-Epo (prepared as described above), mPEG-Epo, or Epo (0.2 mg/mL) was incubated with 0.05% human serum albumin (HSA) in 100 mM HEPES, 2 mM EDTA, pH 7.5 buffer for 21 hours at 37° C. […] The SDS-PAGE gel stained with SYPRO™ red protein stain is shown in FIG. 14A and an immunoblot probed with anti-HSA is shown in FIG. 14B.

[1] = Pharmacokinetic profile in rats dosed intravenously with 125I-labeled lysozyme or its PEG conjugates; type: in vivo, rat; settings: intravenous
Protocol: Lysozyme (66 mg in […] in 0.1 M sodium phosphate buffer pH 7.3) was mixed with 605 μCi of Na^125I (ICN Biomedicals, Irvine, Calif.), in Iodo-Gen® coated tube (Pierce Chemical Company, Rockford, Ill.), and allowed to react for 1 hour at room temperature with 20 min intervals mixing. The iodination reaction was stopped by removing the free ^125I on a Sephadex G-25F gel filtration column (17 mL), and collecting the ^125I-lysozyme, which was then reacted with either mPEG-DTB-NPC and mPEG-NPC, and purified by cation exchange chromatography as described above.
Male Sprague-Dawley rats (250-330 g each, 3 animals per formulation per experiment) were dosed either by intravenous (via a lateral tail vein) or by subcutaneous (dorsally above the right rear leg) with ^125I labeled lysozyme or its PEG conjugates (0.35 mL, 0.4 mg protein/mL, 4.6×10^6 cpm/mL). Blood samples (0.4 mL) were collected via the retro-orbital sinus. All injections blood collections were performed while the animals were under inhaled anesthesia (isoflurane/O2). Samples were collected on heparin into polypropylene tubes and stored on ice for no longer than one hour before being pipetted in triplicate (0.100 mL) into fresh polypropylene tubes. Blood samples were collected at the following times after dosing (no single rat had blood collected at all of the following times): 30 sec, 15 min, 30 min and 1, 2, 3, 4, 6, 8, 24, 48, 72, 96, 120 and 168 hours post-dose. Note that the last 4 time points were added for the longer subcutaneous experiments. The samples were then counted for ^125I in a Packard™ 5000 gamma counter. The cpm counts were converted to concentration according to the specific activity of the samples.

[2] = Decomposition of PEG-DTB-lysozyme conjugates in cysteine solution, HPLC; type: in vitro ADME; settings: 0.6 mM cysteine, room temperature, pH 7.4, HPLC
Protocol: (§1) Conjugates of PEG-DTB-lysozyme were prepared as described in Example 1A. The conjugates (100 μg/mL=0.066 mM) were incubated in 0.6 mM cysteine or with 4% BSA at room temperature (22-24° C.), in 10 mM phosphate buffer pH 7.4 containing 2 mM EDTA. Aliquots were taken at various time points, reactions were stopped with 20 mM iodoacetamide, and stored at 2-8° C. until analysis.
For the conjugates incubated with cysteine, analysis of the aliquots was as done follows. The samples were diluted 1/10 in 10 mM NaPO4 pH 7.4 and analyzed on a carboxymethyl (CM) cation exchanger column.
(§2) HPLC was performed with the following conditions: Column: TOSOH TSK CM-5PW 10 micron (7.5 mm×7.5 cm); Mobile phase: (A) 10 mM NaPO4 pH 7.4 and (B) 500 mM NaCl in 10 mM NaPO4 pH 7.4; Gradient: 5 min 100% A, 20 min 0% B to 100% B; Flow rate: 1 mL/min; Fluorescence detector: λex 295 nm, λem 360 nm (slit 30 nm); and injection volume, 100 μL.

bovine serum albumin = target: T1, bovine serum albumin (Bos taurus, UniProt P02769); assay: Decomposition of PEG-DTB-lysozyme conjugates in 4% BSA solution, HPLC; type: in vitro ADME; settings: room temperature, pH 7.4, HPLC after Q spin column
T1 construct: purchased Proliant (Ankeny, IA)
Protocol: as §1
For the conjugates incubated with BSA, analysis of the samples was done by diluting the samples 1/10 in 10 mM PO4 pH 7.4, passing through Q spin columns (Vivascience) in order to trap the albumin and any of its related products, and then analyzing on the same CM column.
as §2

Micrococcus luteus = Micrococcus luteus turbidity assay of active lysozyme after cleavage of the conjugate; type: biochemical
Protocol: A Micrococcus luteus turbidity assay was used to measure the amount of active lysozyme regenerated after cleavage of the conjugate.
At various time points, aliquots from the incubation vials were added to iodoacetamide to a final concentration of 20 mM, in order to stop the cleavage reaction. Samples were stored at 2-8° C. prior to analysis.
Micrococcus luteus stock solution was prepared at 0.3 mg/mL in 100 mM KPO4 pH 7. Lysozyme standards solutions were prepared at 1, 2, 4, 6, 8, and 10 μg/mL in PBS and a lysozyme standard curve was constructed (not shown). The samples from the cleavage reactions were diluted 1/10 in PBS. For the assay, 50 μL of standard, sample, or control were added per well to 96-well microtiter plates. To each well, 200 μL of Micrococcus luteus were added, and without delay, plates were read at 450 nm at 25° C. in a plate reader of a period of 10 min, in 30 second reading intervals.
The slopes (ΔA/min) were calculated for the first 5 minutes of the reading, and the corresponding lysozyme concentrations were extrapolated from the lysozyme standard curve.

T1 sequence (P02769 25-607): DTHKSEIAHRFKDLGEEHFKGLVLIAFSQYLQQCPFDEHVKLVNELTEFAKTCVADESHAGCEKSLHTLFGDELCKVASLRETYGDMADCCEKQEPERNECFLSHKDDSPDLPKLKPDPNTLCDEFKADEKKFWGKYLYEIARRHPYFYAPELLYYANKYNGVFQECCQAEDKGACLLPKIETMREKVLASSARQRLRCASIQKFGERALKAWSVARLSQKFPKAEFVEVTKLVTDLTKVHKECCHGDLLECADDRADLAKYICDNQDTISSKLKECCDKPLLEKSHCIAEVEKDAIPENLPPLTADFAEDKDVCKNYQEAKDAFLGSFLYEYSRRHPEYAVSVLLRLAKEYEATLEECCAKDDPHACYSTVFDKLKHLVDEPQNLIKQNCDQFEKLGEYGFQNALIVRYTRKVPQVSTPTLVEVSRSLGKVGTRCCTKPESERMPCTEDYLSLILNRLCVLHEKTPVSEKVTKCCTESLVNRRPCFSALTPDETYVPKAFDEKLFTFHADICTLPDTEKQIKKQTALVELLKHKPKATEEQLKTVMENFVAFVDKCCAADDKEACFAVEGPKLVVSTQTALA

Question: For “Epo: Recombinant, human erythropoietin (EPO, EPREX)”, which “formation of albumin-Epo conjugate” value (human serum albumin) is on record?
Answer: The value was “Neither Epo alone nor the noncleavable mPEG-Epo formed the albumin-Epo conjugate”.

Question: For “lysozyme: lysozyme as a model therapeutic agent”, which “clearance from the blood stream / circulation lifetime” value ([1]; 24 hour period) is on record?
Answer: The value was “cleared rapidly”.

Question: Which “calculated half-life of remaining conjugate upon incubation in cysteine” value [2] does the source give for “mPEG5K-DTB-lysozyme: methoxypolyethylene glycol (5 kDa) joined to lysozyme through a methyl-dithiobenzyl urethane linkage” here?
Answer: The value was 0.75 h.

Question: And the “calculated half-life of remaining conjugate upon incubation in BSA” value (bovine serum albumin)?
Answer: Its value is 5 h.

Question: What about the “active lysozyme regenerated from the cysteine cleavage” value (Micrococcus luteus; 0.6 mM cysteine, 37° C.) of the same substance?
Answer: Its value is 74 µg/mL.

Question: What about the “active lysozyme concentration after cleavage with BSA” value (Micrococcus luteus; 4% BSA, 37° C., after 24 hours) of the same substance?
Answer: Its value is “approximately 18 μg/mL”.

Question: What about the “active lysozyme after BSA cleavage as percent of that from cysteine cleavage” value (Micrococcus luteus; 24 hours) of the same substance?
Answer: Its value is 24%.

Question: And the “release of lysozyme from the PEG in saline” value (Micrococcus luteus; saline at 37° C. for up to 24 hours)?
Answer: Its value is “did not induce release of the lysozyme”.

Question: For “mPEG12K-DTB-lysozyme: methoxypolyethylene glycol (12 kDa) joined to lysozyme through a methyl-dithiobenzyl urethane linkage”, which “calculated half-life of remaining conjugate upon incubation in cysteine” value [2] is on record?
Answer: Its value is 1 h.

Question: And the “calculated half-life of remaining conjugate upon incubation in BSA” value (bovine serum albumin)?
Answer: Its value is 6 h.

Question: What about the “AUC values, cleavable vs noncleavable conjugate” value [1] of the same substance?
Answer: The value was “similar”.

Question: And the “half-lives, cleavable vs noncleavable conjugate” value [1]?
Answer: The value was “similar”.
